# Measurements published in US20130295106A1 (ONCOMED PHARMACEUTICALS, published 2013).
# T1: soluble FZD8-Fc containing the Fri domain (amino acids 1-157 of FZD8 linked in-frame to human IgG1 Fc) (human, UniProt Q9H461 28-157)
# T1 construct: also called wild-type FZD8; not shown: human IgG1 Fc
# T1 sequence: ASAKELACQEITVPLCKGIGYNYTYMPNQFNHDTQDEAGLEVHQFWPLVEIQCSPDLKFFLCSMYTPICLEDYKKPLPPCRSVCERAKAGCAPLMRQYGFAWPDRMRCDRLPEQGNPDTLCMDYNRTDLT
# T2: FZD8-Fc variant Mut2 (substitution at position 75 in the cleft) (human, UniProt Q9H461 28-157)
# T2 construct: also called FZD8-Mut2; not shown: human IgG1 Fc
# T2 chain: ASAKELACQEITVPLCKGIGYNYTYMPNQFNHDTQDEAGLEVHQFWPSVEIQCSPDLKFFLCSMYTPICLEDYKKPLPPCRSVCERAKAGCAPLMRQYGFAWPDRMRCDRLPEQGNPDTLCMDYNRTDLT
# T3: FZD5-Fc (Homo sapiens (Human), UniProt Q13467 27-233, limits assumed)
# T3 construct: also called recombinant FZD5 Fc protein; not shown: Fc part, not described
# T3 sequence: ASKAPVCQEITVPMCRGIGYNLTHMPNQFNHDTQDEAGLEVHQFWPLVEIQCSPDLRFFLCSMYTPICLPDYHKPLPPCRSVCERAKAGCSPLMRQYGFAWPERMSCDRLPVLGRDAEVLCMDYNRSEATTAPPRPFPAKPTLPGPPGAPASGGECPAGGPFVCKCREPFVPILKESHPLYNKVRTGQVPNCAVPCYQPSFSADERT
# What was measured:
# [1] = molecular target: T4, human FZD5 expressed on transfected HEK293 cells (human, UniProt Q13467 27-585); assay: FACS titration (MFI) on HEK293 cells transfected with full-length FZD and GFP
# T4 construct: See note of m11
# Description: (§1) HEK293 cells were co-transfected with a plasmid DNA expressing full-length FZD1, 2, 5, 7 or 8 along with another plasmid expressing the reporter gene GFP used as a transfection marker. Fugene 6 (Roche) was used as transfection reagent according to the manufacturer directions. Transfected cells were incubated twenty-four to forty-eight hours at 37° C. and 5% CO₂. The anti-FZD mAbs were then diluted in a final volume of 50 μl starting with a concentration of 20 μg/ml and serially diluted 4-fold for a total of 8 dilutions. […] The cells were washed and bound anti-Fzd antibodies were detected with a secondary anti-human antibody conjugated to a fluorescent chromophore. Labeled cells were then detected and counted by FACS. The FACS data generated were expressed in Mean Fluorescence Intensity (MFI) units. GraphPad Prism software was used to graph and analyze the data. MFIs were plotted as a function of Ab concentration to establish dose-response curves. A non-linear regression was applied to the numbers to fit the curve and calculate EC50s.
# (§2) The binding profiles for the mAbs 18R5 and 44R24 were determined and compared. 44R24 bound Fzd5 and Fzd8 with good affinity.
# [2] = molecular target: T1, soluble FZD8-Fc containing the Fri …; assay: phage ELISA on FZD8-Fc
# [3] = molecular target: T2, FZD8-Fc variant Mut2 (substitution at …); assay: phage ELISA on FZD8-Fc Mut2
# [4] = molecular target: T5, human FZD1 expressed on transfected HEK293 cells (human, UniProt Q9UP38 70-647); assay: FACS titration (MFI) on HEK293 cells transfected with full-length FZD and GFP
# Description: as §1, §2
# [5] = molecular target: T6, human FZD2 expressed on transfected HEK293 cells (human, UniProt Q14332 24-565); assay: as above
# T6 construct: See note of m11
# Description: as §1, §2
# [6] = molecular target: T7, human FZD7 expressed on transfected HEK293 cells (human, UniProt O75084 33-574); assay: as above
# T7 construct: See note of m11
# Description: as §1, §2
# [7] = molecular target: T8, recombinant FZD1 Fc protein (Biacore) (Homo sapiens (Human), UniProt Q9UP38 70-321, limits assumed); assay: SPR, Biacore 2000; Fzd Fc immobilized on CM5 chip, IgG 100 to 0.78 nM in solution
# T8 construct: also called Fzd Fc; not shown: Fc part, not described
# Description: (§3) The KDs of 18R8 and 18R5 antibodies were determined using the Biacore 2000 system from Biacore Lifescience (GE Healthcare). Specifically, purified anti-Fzd7 antibodies were serially diluted in 2-fold increments from 100 to 0.78 nM in HBS-P (0.01 M HEPES pH 7.4, 0.15 M NaCl, 0.005% v/v Surfactant P20). Each dilution was tested against recombinant Fzd Fc proteins immobilized onto a CM5 Biacore chip. The association and dissociation rates were measured and KD values determined using the Biaevaluation software program (Table 5, below).
# [8] = molecular target: T9, recombinant FZD2 Fc protein (Biacore) (Homo sapiens (Human), UniProt Q14332 24-250, limits assumed); assay: as above
# T9 construct: also called Fzd Fc; not shown: Fc part, not described
# Description: as §3
# [9] = molecular target: T3, FZD5-Fc; assay: as above
# Description: as §3
# [10] = molecular target: T10, recombinant FZD7 Fc protein (Biacore) (Homo sapiens (Human), UniProt O75084 33-255, limits assumed); assay: as above
# T10 construct: also called Fzd Fc; not shown: Fc part, not described
# Description: as §3
# [11] = molecular target: T5, human FZD1 expressed on transfected …; assay: flow cytometry (MFI), antibody titration on HEK293 cells overexpressing the FZD
# Description: (§4) To measure antibody binding to FZD by flow cytometry HEK293 cells were co-transfected with FZD expression vectors and the transfection marker GFP. Twenty-four to forty-eight hours post-transfection, cells were collected in suspension and incubated on ice with anti-FZD antibodies (10 μg/ml unless otherwise indicated) or control IgG to detect background antibody binding. The cells were washed and primary antibodies detected with Fc domain-specific secondary antibodies conjugated to a fluorescent chromophore (e.g. phycoerythrin conjugated anti-human IgG). Labeled cells were then analyzed by flow cytometry to identify anti-FZD antibodies that specifically recognize cell surface expression of FZD protein. Monoclonal antibodies 18R5 and 18R8 recognized FZD on transfected cells. As shown in FIG. 1 and FIG. 2, both 18R8 and 18R5 bind to multiple FZD including FZD1, FZD2, FZD5, FZD7, and FZD8. To examine the relative ability of 18R8 and 18R5 to bind to each FZD protein, titration analysis was conducted wherein the amount of antibody in the binding reaction was varied (FIG. 2).
# [12] = molecular target: T6, human FZD2 expressed on transfected …; assay: as above
# Description: as §4
# T5 sequence (Q9UP38 70-647 limits assumed): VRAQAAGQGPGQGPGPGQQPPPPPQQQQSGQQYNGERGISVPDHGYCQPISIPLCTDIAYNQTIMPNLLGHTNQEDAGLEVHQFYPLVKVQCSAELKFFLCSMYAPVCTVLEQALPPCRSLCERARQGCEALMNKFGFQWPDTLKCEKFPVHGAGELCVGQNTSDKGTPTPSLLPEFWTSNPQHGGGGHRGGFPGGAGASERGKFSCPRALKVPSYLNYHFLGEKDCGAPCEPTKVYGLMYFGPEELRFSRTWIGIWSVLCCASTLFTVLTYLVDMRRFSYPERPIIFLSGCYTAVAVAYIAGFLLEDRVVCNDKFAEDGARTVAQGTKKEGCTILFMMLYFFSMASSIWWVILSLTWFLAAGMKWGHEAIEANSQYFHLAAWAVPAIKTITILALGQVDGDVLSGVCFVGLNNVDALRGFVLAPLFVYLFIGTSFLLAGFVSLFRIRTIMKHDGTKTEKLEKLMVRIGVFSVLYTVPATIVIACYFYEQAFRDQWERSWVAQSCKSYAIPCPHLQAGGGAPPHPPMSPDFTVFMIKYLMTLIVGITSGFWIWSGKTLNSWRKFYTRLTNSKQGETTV
# T6 sequence (Q14332 24-565 limits assumed): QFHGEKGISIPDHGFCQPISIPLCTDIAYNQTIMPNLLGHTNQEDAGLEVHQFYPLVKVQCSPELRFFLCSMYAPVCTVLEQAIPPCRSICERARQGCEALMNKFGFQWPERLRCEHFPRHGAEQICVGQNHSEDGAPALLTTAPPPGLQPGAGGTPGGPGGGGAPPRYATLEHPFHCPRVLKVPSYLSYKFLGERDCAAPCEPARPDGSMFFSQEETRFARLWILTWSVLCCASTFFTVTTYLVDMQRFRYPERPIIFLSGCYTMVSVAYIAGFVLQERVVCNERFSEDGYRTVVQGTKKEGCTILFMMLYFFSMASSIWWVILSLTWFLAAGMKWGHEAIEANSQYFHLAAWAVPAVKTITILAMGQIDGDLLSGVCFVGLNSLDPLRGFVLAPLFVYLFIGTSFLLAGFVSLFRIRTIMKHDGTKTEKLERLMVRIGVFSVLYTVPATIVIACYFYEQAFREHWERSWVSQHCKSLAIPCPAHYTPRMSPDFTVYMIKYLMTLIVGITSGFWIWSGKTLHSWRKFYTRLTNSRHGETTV
# T9 sequence (Q14332 24-250 limits assumed): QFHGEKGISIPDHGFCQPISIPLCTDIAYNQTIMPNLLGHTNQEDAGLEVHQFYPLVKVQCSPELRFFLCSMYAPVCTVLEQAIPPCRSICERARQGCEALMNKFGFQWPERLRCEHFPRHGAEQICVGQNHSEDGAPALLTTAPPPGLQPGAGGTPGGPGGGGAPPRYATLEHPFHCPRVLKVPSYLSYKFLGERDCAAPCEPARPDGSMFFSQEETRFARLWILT
# T8 sequence (Q9UP38 70-321 limits assumed): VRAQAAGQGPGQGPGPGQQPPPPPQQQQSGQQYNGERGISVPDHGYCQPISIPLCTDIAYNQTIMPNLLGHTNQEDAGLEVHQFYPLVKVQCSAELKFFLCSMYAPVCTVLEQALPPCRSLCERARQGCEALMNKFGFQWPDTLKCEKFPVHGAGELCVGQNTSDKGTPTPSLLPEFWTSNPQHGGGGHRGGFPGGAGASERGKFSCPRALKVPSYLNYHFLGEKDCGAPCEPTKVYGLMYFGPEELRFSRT
binder,measurement,setting,value
"44R24 anti-FZD IgG antibody (antibody, V domains shown, also called anti-FZD5/8 44R24) VH: EVQLVESGGGLVQPGGSLRLSCAASGFTFSSYYITWVRQAPGKGLEWVSTISYSSSNTYYADSVKGRFTISRDNSKNTLYLQMNSLRAEDTAVYYCARSIVFDYWGQGTLVTVSS VL: DIELTQPPSVSVAPGQTARISCSGDALGNRYVYWYQQKPGQAPVLVIPSGIPERFSGSNSGNTATLTISGTQAEDEADYYCGSWDTRPYPKYVFGGGTKLTVLG",EC50,[1],1.89 nM
DTLSALIERGLM (Linear 12-mer from the Ph.D. phage display peptide library) [FZD binding peptide clone #2 (DTLSALIERGLM)],binding result,[2],binds
same,binding result,[3],no binding
DVWWLGSTWLKR (marked with an arrow) [clone 28],binding result,[3],no binding
"18R5 IgG antibody (human IgG2, lambda) (antibody, V domains shown, also called OMP-18R5; 18R5 IgG2 antibody) VH: EVQLVESGGGLVQPGGSLRLSCAASGFTFSHYTLSWVRQAPGKGLEWVSVISGDGSYTYYADSVKGRFTISSDNSKNTLYLQMNSLRAEDTAVYYCARNFIKYVFANWGQGTLVTVSS VL: DIELTQPPSVSVAPGQTARISCSGDNIGSFYVHWYQQKPGQAPVLVIYDKSNRPSGIPERFSGSNSGNTATLTISGTQAEDEADYYCQSYANTLSLVFGGGTKLTVLG",EC50,[4],0.41 nM
same,EC50,[5],0.62 nM
same,EC50,[1],1.1 nM
same,EC50,[6],0.58 nM
same,Kd,[7],4.6 nM
same,Kd,[8],3.3 nM
same,Kd,[9],1.9 nM
same,Kd,[10],1.8 nM
same,EC50 (read off the curve),[11],~0.2 µg/mL
same,EC50 (read off the curve),[12],~0.2 µg/mL
